Measurements as given in US20260234255A1 (Genmab, published 2026).
Substitutions are numbered along the chain they refer to.

T1: human CD30 (human, UniProt P28908 19-595)
T1 construct: also called huCD30; TNFRSF8
T1 sequence: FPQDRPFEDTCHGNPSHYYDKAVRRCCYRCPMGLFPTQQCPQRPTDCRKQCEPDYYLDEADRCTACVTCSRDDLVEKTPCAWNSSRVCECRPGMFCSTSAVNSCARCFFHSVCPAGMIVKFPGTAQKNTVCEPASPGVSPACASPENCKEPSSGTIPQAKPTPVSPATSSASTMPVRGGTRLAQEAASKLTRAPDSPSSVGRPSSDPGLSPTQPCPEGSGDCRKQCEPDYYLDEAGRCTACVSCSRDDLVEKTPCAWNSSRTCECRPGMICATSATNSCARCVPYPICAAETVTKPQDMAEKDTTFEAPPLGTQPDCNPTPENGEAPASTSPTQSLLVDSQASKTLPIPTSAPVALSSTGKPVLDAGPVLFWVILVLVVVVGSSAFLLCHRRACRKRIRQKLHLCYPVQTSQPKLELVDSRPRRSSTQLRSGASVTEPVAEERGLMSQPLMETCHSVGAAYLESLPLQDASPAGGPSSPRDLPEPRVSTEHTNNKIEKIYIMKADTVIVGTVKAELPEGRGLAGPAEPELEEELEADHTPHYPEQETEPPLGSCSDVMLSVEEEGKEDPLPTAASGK

B1: bsG1-huCD3-FEALxCD30-T405-FEAR (bispecific antibody, human IgG1, kappa, lambda)
heavy 1: not shown
light 1: not shown
heavy 2: QVQLQQIGAELVRPGASVKLSCKASGYTFNNYWINWVKQRPGQGLEWIGNIYPSDSRSNYNQKFKDKATLTVDKPSSTAYMQLSSPTSEDSAVYYCTLGSYWGQGTLVTVSAASTKGPSVFPLAPSSKSTSGGTAALGCLVKDYFPEPVTVSWNSGALTSGVHTFPAVLQSSGLYSLSSVVTVPSSSLGTQTYICNVNHKPSNTKVDKRVEPKSCDKTHTCPPCPAPEFEGGPSVFLFPPKPKDTLMISRTPEVTCVVVAVSHEDPEVKFNWYVDGVEVHNAKTKPREEQYNSTYRVVSVLTVLHQDWLNGKEYKCKVSNKALPAPIEKTISKAKGQPREPQVYTLPPSREEMTKNQVSLTCLVKGFYPSDIAVEWESNGQPENNYKTTPPVLDSDGSFFLYSRLTVDKSRWQQGNVFSCSVMHEALHNHYTQKSLSLSPG
light 2: DVVMTQTPLTLSVTIGQPASISCKSSQSLSDSDGKTYLNWLLQRPGQSPKRLIYLVSKLDSGVPDRFTGSGSGTDFTLKISRVEAEDLGVYYCWQGAHFPRTFGGGTKLEIKRTVAAPSVFIFPPSDEQLKSGTASVVCLLNNFYPREAKVQWKVDNALQSGNSQESVTEQDSKDSTYSLSSTLTLSKADYEKHKVYACEVTHQGLSSPVTKSFNRGEC
notes: Bispecific IgG1 made by controlled Fab-arm exchange; also called bsIgG1-huCD3-FEALxCD30-T405-FEAR
B2: bsG1-huCD3-FEALxCD30-HeFi-I-FEAR (bispecific antibody, human IgG1, kappa, lambda)
heavy 1: not shown
light 1: not shown
heavy 2: EVKLVESGGGLVQPGGSLRLSCATSGFTFSDYYMNWVRQPPGKALEWLGFIRNKANGYTTEFSASVMGRFTISRDDSQSILYLQMNTLRAEDSATYYCARDPPYGNPHYYAMDYWGQGTSVTVSSASTKGPSVFPLAPSSKSTSGGTAALGCLVKDYFPEPVTVSWNSGALTSGVHTFPAVLQSSGLYSLSSVVTVPSSSLGTQTYICNVNHKPSNTKVDKRVEPKSCDKTHTCPPCPAPEFEGGPSVFLFPPKPKDTLMISRTPEVTCVVVAVSHEDPEVKFNWYVDGVEVHNAKTKPREEQYNSTYRVVSVLTVLHQDWLNGKEYKCKVSNKALPAPIEKTISKAKGQPREPQVYTLPPSREEMTKNQVSLTCLVKGFYPSDIAVEWESNGQPENNYKTTPPVLDSDGSFFLYSRLTVDKSRWQQGNVFSCSVMHEALHNHYTQKSLSLSPG
light 2: not shown
notes: Bispecific IgG1 made by controlled Fab-arm exchange; also called BsIgG1-huCD3-FEALxCD30-HeFi-I-FEAR
B3: IgG1-CD30-HeFi-I-FEAR (antibody, V domains shown)
VH: EVKLVESGGGLVQPGGSLRLSCATSGFTFSDYYMNWVRQPPGKALEWLGFIRNKANGYTTEFSASVMGRFTISRDDSQSILYLQMNTLRAEDSATYYCARDPPYGNPHYYAMDYWGQGTSVTVSS
VL: DIVLTQSPASLAVSLGQRATISCRASKSVSASGYNYMHWYQQKAGQPPKLLIHLASNLESGVPARFSGSGSGTDFTLNIHPVEEEDASTYYCQHSGELPFTFGSGTKLEIKR
notes: Monospecific, bivalent parental antibody
B4: IgG1-CD30-HRS-3-FEAR (antibody, V domains shown)
VH: QVQLQQSGAELARPGASVKMSCKASGYTFTTYTIHWVRQRPGHDLEWIGYINPSSGYSDYNQNFKGKTTLTADKSSNTAYMQLNSLTSEDSAVYYCARRADYGNYEYTWFAYWGQGTTVTVSS
VL: DIVMTQSPKFMSTSVGDRVTVTCKASQNVGTNVAWFQQKPGQSPKVLIYSASYRYSGVPDRFTGSGSGTDFTLTISNVQSEDLAEYFCQQYHTYPLTFGGGTKLEINR
notes: as for B3
B5: bsG1-huCD3-FEALxCD30-hAC10-FEAR (bispecific antibody, human IgG1, kappa, lambda)
heavy 1: not shown
light 1: not shown
heavy 2: QVQLVQSGAEVKKPGASVKVSCKASGYTFTDYYITWVRQAPGQGLEWMGWIYPGSGNTKYNEKFKGRVTMTRDTSISTAYMELSRLRSDDTAVYYCANYGNYWFAYWGQGTLVTVSSASTKGPSVFPLAPSSKSTSGGTAALGCLVKDYFPEPVTVSWNSGALTSGVHTFPAVLQSSGLYSLSSVVTVPSSSLGTQTYICNVNHKPSNTKVDKRVEPKSCDKTHTCPPCPAPEFEGGPSVFLFPPKPKDTLMISRTPEVTCVVVAVSHEDPEVKFNWYVDGVEVHNAKTKPREEQYNSTYRVVSVLTVLHQDWLNGKEYKCKVSNKALPAPIEKTISKAKGQPREPQVYTLPPSREEMTKNQVSLTCLVKGFYPSDIAVEWESNGQPENNYKTTPPVLDSDGSFFLYSRLTVDKSRWQQGNVFSCSVMHEALHNHYTQKSLSLSPG
light 2: not shown
notes: Bispecific IgG1 made by controlled Fab-arm exchange
B6: bsG1-huCD3-FEALxCD30-T215-FEAR (bispecific antibody, human IgG1, kappa, lambda)
heavy 1: not shown
light 1: not shown
heavy 2: not shown
light 2: DIVMTQSQKFMSTSVGDRVSVTCKASQNVFTNVAWYQQKLGQSPKPLIYSASYRYSGVPDRFTGSGSGTDFTLTISDVQSEDLAEYFCQQYNSYPVTFGAGTKLELKRTVAAPSVFIFPPSDEQLKSGTASVVCLLNNFYPREAKVQWKVDNALQSGNSQESVTEQDSKDSTYSLSSTLTLSKADYEKHKVYACEVTHQGLSSPVTKSFNRGEC
notes: Bispecific IgG1 made by controlled Fab-arm exchange; also called bsIgG1-huCD3-FEALxCD30-T215-FEAR
B7: IgG1-CD30-T215-FEAR (antibody, V domains shown)
VH: QVTLKESGPGILQPSQTLSLTCSFSGFSLSVSGMGVSWIRQPSGKGLEWLAHIHWDDDRRSNPSLRSRLTISKDTSNNQVFLKITSVDTADTATYYCARRPDLYGNYFFFDFWGQGTTLTVSS
VL: DIVMTQSQKFMSTSVGDRVSVTCKASQNVFTNVAWYQQKLGQSPKPLIYSASYRYSGVPDRFTGSGSGTDFTLTISDVQSEDLAEYFCQQYNSYPVTFGAGTKLELKR
notes: as for B3
B8: IgG1-CD30-hAC10-FEAR (antibody, V domains shown)
VH: QVQLVQSGAEVKKPGASVKVSCKASGYTFTDYYITWVRQAPGQGLEWMGWIYPGSGNTKYNEKFKGRVTMTRDTSISTAYMELSRLRSDDTAVYYCANYGNYWFAYWGQGTLVTVSS
VL: DIVMTQSPDSLAVSLGERATINCKASQSVDFDGDSYMNWYQQKPGQPPKLLIYAASNLESGVPDRFSGSGSGTDFTLTISSLQAEDVAVYYCQQSNEDPWTFGQGTKVEIKR
notes: as for B3
B9: bsG1-huCD3-FEALxCD30-T408-FEAR (bispecific antibody, human IgG1, kappa, lambda)
heavy 1: not shown
light 1: not shown
heavy 2: B1 heavy 2 with I7P, N30T, N31S, R57Y, P75S
light 2: B1 light 2

What follows are binders tested against T1, human CD30 (assay: flow cytometry, Expi293F cells transfected with human CD30).
Protocol: Cells (3×10⁴ cells/well) were incubated in polystyrene 96-well round-bottom plates (Greiner bio-one, cat. no. 650180) with serial dilutions of antibodies (ranging from 0.005 to 10 μg/mL in 3-fold dilution steps) in 100 μL staining buffer at 4° C. for 30 min. Experiments were performed in technical duplicate. After washing twice in staining buffer, cells were incubated in 50 μL secondary antibody at 4° C. for 30 min. As a secondary antibody, R-PE-conjugated goat-anti-human IgG (Jackson ImmunoResearch, UK; cat. no. 109⁻¹¹⁶-098) diluted 1:400 in staining buffer was used. Cells were washed twice in staining buffer, resuspended in 30 μL staining buffer containing 0.4% EDTA and analyzed on an iQue Screener (Intellicyt Corporation, USA). Binding curves were analyzed using non-linear regression (sigmoidal dose-response with variable slope) using GraphPad Prism V9.0.0 software (GraphPad Software, San Diego, CA, USA).

Row | Binder | EC50 (read off the curve) [µg/mL] | binding result
1 | B1 | ~0.7 | 
2 | B2 | ~0.1 | 
3 | B3 |  | binds

What follows are binders tested against T1, human CD30 (assay: flow cytometry, HDLM-2 cells).
Protocol: (§1) Binding of CD3×CD30 bispecific antibodies to two CD30-expressing human tumor cell lines SU-DHL-1 (ALCL; ATCC, cat. no. ACC 356) and HDLM-2 (HL; ATCC, cat. no. CRL-2965) was analyzed […] by flow cytometry.
(§2) Cells (3×10⁴ cells/well) were incubated in polystyrene 96-well round-bottom plates (Greiner bio-one, cat. no. 650180) with serial dilutions of antibodies (range 0.0046 to 10 μg/mL in 3-fold dilution steps) in 50 μL staining buffer at 4° C. for 30 min. After washing twice in staining buffer, cells were incubated with 50 μL secondary antibody at 4° C. for 30 min. […] Next, cells were washed twice in staining buffer, resuspended in 100 μL staining buffer supplemented with TO-PRO-3 iodide (Thermo Fisher Scientific; cat. no. T3605; 1:8000 dilution) and analyzed on a FACSCelesta flow cytometer (BD Biosciences, USA). Live cells were gated based on FSC/SSC and absence of TOPRO-3 staining. Binding curves were analyzed by non-linear regression of log-transformed data (sigmoidal dose-response with variable slope, four parameters) using GraphPad Prism V7.02 software (GraphPad Software, San Diego, CA, USA).

Row | Binder | EC50 (read off the curve) [µg/mL]
4 | B1 | ~1
5 | B4 | ~0.2
6 | B2 | ~0.3
7 | B5 | ~0.2
8 | B6 | ~0.6
9 | B7 | ~0.2
10 | B8 | ~0.1

Each binder was assayed against T1, human CD30 (assay: cell-based or functional assay).

Row | Binder | T-cell mediated cytotoxicity of Karpas-299 cells, IC50 average [µg/mL] | T-cell mediated cytotoxicity of Karpas-299 cells, maximum lysis average [%]
11 | B1 | 0.078 | 41.7
12 | B9 | 0.226 | 41.3
13 | B2 | 0.052 | 43
14 | B6 | 0.077 | 42.8

What follows are binders tested against T1, human CD30 (assay: flow cytometry, SU-DHL-1 cells).
Protocol: as §1, §2

Row | Binder | EC50 (read off the curve) [µg/mL]
15 | B4 | ~0.2
16 | B2 | ~0.3
17 | B5 | ~0.2
18 | B7 | ~0.1
